Assay [1] has as its target T1, Anti-CD28 Fab (SEQ ID NOs: 696, 697).
T1 construct: In the phage ELISA the Fab was biotinylated and captured on neutravidin coated plates
Kind of assay: phage binding ELISA; biotinylated anti-CD28 Fab on neutravidin plate, clonal phage detected with anti-M13-HRP.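 Further: crude clonal phage supernatants added briefly to wells preincubated in blocking buffer with or without CD28 antigen, then washed before detection.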 For orientation: ELISA stands for enzyme-linked immunosorbent assay.
T1 sequence (VH, as listed by the source, chain 1 of 2): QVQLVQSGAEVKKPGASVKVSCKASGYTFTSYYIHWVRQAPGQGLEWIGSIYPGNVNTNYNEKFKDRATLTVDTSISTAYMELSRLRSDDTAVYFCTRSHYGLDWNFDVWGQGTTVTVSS
T1 sequence (VL, as listed by the source, chain 2 of 2): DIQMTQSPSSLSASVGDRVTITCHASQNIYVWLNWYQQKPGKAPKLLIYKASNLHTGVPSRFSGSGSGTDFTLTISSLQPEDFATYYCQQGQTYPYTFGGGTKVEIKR
Method: (§1) Clonal phage were harvested as crude supematants and screened via standard ELISAs. […] Prior to the addition of clonal phage, wells were incubated with blocking buffer and CD28 antigen or blocking buffer alone. Without washing or aspirating, clonal phage supematants were then added to the wells and incubated for a short time. Wells were then washed followed by detection of bound phage using a horse radish conjugated anti-M13 antibody. Clonal phage of interest were then sent for sequence analysis.

The target is the same in assay [2]. Kind of assay: phage binding ELISA; Fab-coated wells pre-incubated with CD28 antigen as competitor, phage detected with anti-M13-HRP.
Target sequence in this assay (VH, as listed by the source, chain 1 of 2): as the sequence (VH, as listed by the source, chain 1 of 2) above
Target sequence in this assay (VL, as listed by the source, chain 2 of 2): as the sequence (VL, as listed by the source, chain 2 of 2) above
Method: as §1
In assay [3] the target is T2, Anti-PSMA Fab (SEQ ID NOs: 19, 20).
T2 construct: Biotinylated Fab captured on neutravidin coated plates in the phage ELISA; also called 006 PSMA Fab
As to the kind of experiment: phage binding ELISA; clonal phage on biotinylated PSMA Fab captured on neutravidin plates, anti-M13 HRP detection.
Method: (§2) Clonal phage were harvested as crude supernatants and screened via standard ELISAs. […] Prior to the addition of clonal phage. wells were incubated with blocking buffer and PSMA antigen or blocking buffer alone. Without washing or aspirating, clonal phage supernatants were then added to the wells and incubated for a short time. Wells were then washed followed by detection of bound phage using a horse radish conjugated anti-M13 antibody.

Assay [4] has the same target. As to the kind of experiment: phage binding ELISA on PSMA Fab coated plates; competitor: PSMA antigen.
Method: as §2
Assay [5] deals with T3, Anti-PSMA Fab (SEQ ID NOs: 19, 20).
T3 construct: Biotinylated and captured on neutravidin coated plates in the phage ELISA; also called 006 PSMA Fab
As to the kind of experiment: phage binding ELISA on captured anti-PSMA Fab; PSMA antigen as competitor.
Method: as §2

Assay [6] shares this target. As to the kind of experiment: phage binding ELISA; biotinylated anti-PSMA Fab captured on neutravidin, bound phage detected with anti-M13 HRP.
Method: as §2
The target of assay [7] is Anti-CD28 Fab (SEQ ID NOs: 696, 697). Kind of assay: phage binding ELISA; biotinylated anti-CD28 Fab on neutravidin plate, clonal phage supernatant, anti-M13 HRP detection.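 Further: wells pretreated with blocking buffer, either plus or minus CD28 antigen, then given crude phage supernatant briefly without washing in between, then washed before anti-M13 HRP readout.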
Target sequence in this assay (VH, as listed by the source, chain 1 of 2): as the sequence (VH, as listed by the source, chain 1 of 2) above
Target sequence in this assay (VL, as listed by the source, chain 2 of 2): as the sequence (VL, as listed by the source, chain 2 of 2) above
Method: (§3) Clonal phage were harvested as crude supematants and screened via standard ELISAs. […] Prior to the addition of clonal phage, wells were incubated with blocking buffer and CD28 antigen or blocking buffer alone. Without washing or aspirating, clonal phage supematants were then added to the wells and incubated for a short time. Wells were then washed followed by detection of bound phage using a horse radish conjugated anti-M13 antibody.
Assay [8] has the same target. Kind of assay: phage binding ELISA; Fab-coated wells pre-incubated with saturating CD28 antigen as competitor, anti-M13 HRP detection.
Target sequence in this assay (VH, as listed by the source, chain 1 of 2): as the sequence (VH, as listed by the source, chain 1 of 2) above
Target sequence in this assay (VL, as listed by the source, chain 2 of 2): as the sequence (VL, as listed by the source, chain 2 of 2) above
Method: as §3

Consider LCEAGFNYDWPRCL (Peptide-92 library clone) [Phage-1683], for which the “Anti-CD28 Fab (SEQ ID NOs: 696, 697) signal” value in assay [1] was 0.85. In addition, in assay [2], the “Anti-CD28 Fab signal in the presence of CD28” value (shortened to “Anti-CD28 Fab signal”) was 0.07.

In the case of VGKLCVPEWMCVGL [Phage-1767], the “Anti-PSMA Fab (SEQ ID NOs: 19, 20) signal” value in assay [3] was 2.25. In assay [4], the “Anti-PSMA Fab signal in the presence of PSMA” value (shortened to “Anti-PSMA Fab signal”) came out at 0.063.

As to QCAAGFSYTWPECY (Peptide-92 library clone) [Phage-1678], in assay [1], the “Anti-CD28 Fab (SEQ ID NOs: 696, 697) signal” value was determined as 0.9. Also, the “Anti-CD28 Fab signal” value in assay [2] turned out to be 0.11.

With TCAAGATWVWPTCF (Peptide-92 library clone) [Phage-1675], in assay [1], the “Anti-CD28 Fab (SEQ ID NOs: 696, 697) signal” value was 0.92. Further, the “Anti-CD28 Fab signal” value in assay [2] was 0.07.

Consider TCAAGAKYVWPLCF (Peptide-92 library clone) [Phage-1682], for which the “Anti-CD28 Fab (SEQ ID NOs: 696, 697) signal” value in assay [1] turned out to be 0.85. Further, in assay [2], the “Anti-CD28 Fab signal” value came to 0.12.

On to WEKLCTPAWMCVGF [Phage-1764], for which the “Anti-PSMA Fab (SEQ ID NOs: 19, 20) signal” value in assay [3] is 2.44. Further, in assay [4], the “Anti-PSMA Fab signal” value is 0.105.

Turning to DLRLCKPAWMCYFI [Phage-1773], in assay [3], the “Anti-PSMA Fab (SEQ ID NOs: 19, 20) signal” value was 2.11. The “Anti-PSMA Fab signal” value in assay [4] is 0.0751.

Consider RCKAGVPYKWPMCL (Peptide-92 library clone) [Phage-1680], for which the “Anti-CD28 Fab (SEQ ID NOs: 696, 697) signal” value in assay [1] was found to be 0.87. In addition, the “Anti-CD28 Fab signal” value in assay [2] stood at 0.06.

In the case of FEKWCTPPWMCSLF [Phage-1772], the “Anti-PSMA Fab (SEQ ID NOs: 19, 20) signal” value in assay [3] was 2.11. Also, the “Anti-PSMA Fab signal” value in assay [4] came out at 0.203.

As to SCSAGAMWLWPECF (Peptide-92 library clone) [Phage-1688], in assay [1], the “Anti-CD28 Fab (SEQ ID NOs: 696, 697) signal” value was 0.8. Moreover, the “Anti-CD28 Fab signal” value in assay [2] came to 0.06.

For the molecule LCQWYPKFHWMDCD (also called Peptide-210) [Phage-1760], the “Anti-PSMA Fab (SEQ ID NOs: 19, 20) signal” value in assay [3] worked out at 0.611. Moreover, in assay [4], the “Anti-PSMA Fab signal” value came out at 0.0695.

On to IPKSCIPSWMCTGF [Phage-1775 (clonal phage displaying the peptide of SEQ ID NO: 2071)], for which the “Anti-PSMA Fab signal” value in assay [5] came out at 0.101. Further, in assay [6], the “Anti-PSMA Fab (SEQ ID NOs: 19, 20) signal” value was found to be 2.08.

FEKLCVPKWMCEGI (also called Peptide-220) [Phage-1770]: the “Anti-PSMA Fab (SEQ ID NOs: 19, 20) signal” value in assay [3] was found to be 2.17. Also, the “Anti-PSMA Fab signal” value in assay [4] turned out to be 0.0601.

For the molecule WCSAVFSYQWPPCF (Peptide-92 library clone) [Phage-1689], in assay [1], the “Anti-CD28 Fab (SEQ ID NOs: 696, 697) signal” value was determined as 0.78. In addition, in assay [2], the “Anti-CD28 Fab signal” value came out at 0.06.

HCKFHDYHSWYVCY [Phage-1762]: the “Anti-PSMA Fab (SEQ ID NOs: 19, 20) signal” value in assay [3] was 2.31. Further, the “Anti-PSMA Fab signal” value in assay [4] was 0.0994.

For LCEWWTSHVDAWCA [Phage-1763], the “Anti-PSMA Fab (SEQ ID NOs: 19, 20) signal” value in assay [3] stood at 0.575. The “Anti-PSMA Fab signal” value in assay [4] was found to be 0.184.

Turning to IDKLCIPFWMCENL [Phage-1771], the “Anti-PSMA Fab (SEQ ID NOs: 19, 20) signal” value in assay [3] stood at 2.16. Further, the “Anti-PSMA Fab signal” value in assay [4] was 0.0699.

Regarding LCAAGFMYEWPLCF (also called Peptide-92 library clone) [Phage-1590], the “Anti-CD28 Fab (SEQ ID NOs: 696, 697) signal” value in assay [7] was 1.4. Further, in assay [8], the “Anti-CD28 Fab signal” value is 0.06.

For the molecule TCAAGASWDWPFCF (Peptide-92 library clone) [Phage-1684], the “Anti-CD28 Fab (SEQ ID NOs: 696, 697) signal” value in assay [1] was found to be 0.82. Moreover, the “Anti-CD28 Fab signal” value in assay [2] is 0.08.

Consider SCAAGATYKWPACF (Peptide-92 library clone) [Phage-1687], for which, in assay [1], the “Anti-CD28 Fab (SEQ ID NOs: 696, 697) signal” value was found to be 0.8. In addition, in assay [2], the “Anti-CD28 Fab signal” value stood at 0.06.

Regarding HVKLCKPAWMCQGL [Phage-1769], in assay [3], the “Anti-PSMA Fab (SEQ ID NOs: 19, 20) signal” value was 2.18. Further, in assay [4], the “Anti-PSMA Fab signal” value is 0.0831.

For the molecule TCSAGATYSWPACL (also called Peptide-92 library clone) [Phage-1584], the “Anti-CD28 Fab (SEQ ID NOs: 696, 697) signal” value in assay [7] was determined as 1.41. The “Anti-CD28 Fab signal” value in assay [8] came to 0.06.

Consider TCAAGASYPWPLCV (also called Peptide-92 library clone) [Phage-1589], for which the “Anti-CD28 Fab (SEQ ID NOs: 696, 697) signal” value in assay [7] is 1.4. Besides, the “Anti-CD28 Fab signal” value in assay [8] was determined as 0.06.

Take TCSAGAMYNWPECF (Peptide-92 library clone) [Phage-1676]: the “Anti-CD28 Fab (SEQ ID NOs: 696, 697) signal” value in assay [1] turned out to be 0.92. Also, in assay [2], the “Anti-CD28 Fab signal” value stood at 0.08.

Turning to TCSAGAMYSWPLCI (Peptide-92 library clone) [Phage-1677], the “Anti-CD28 Fab (SEQ ID NOs: 696, 697) signal” value in assay [1] was determined as 0.91. The “Anti-CD28 Fab signal” value in assay [2] is 0.08.

On to MCAAGAAWAWPLCL (also called Peptide-92 library clone) [Phage-1588], for which the “Anti-CD28 Fab (SEQ ID NOs: 696, 697) signal” value in assay [7] turned out to be 1.4. Further, the “Anti-CD28 Fab signal” value in assay [8] turned out to be 0.07.

Turning to ECGWEPGQHWRVCF (Peptide-92 library clone) [Phage-1685], the “Anti-CD28 Fab (SEQ ID NOs: 696, 697) signal” value in assay [1] is 0.82. Also, the “Anti-CD28 Fab signal” value in assay [2] is 0.06.

For VLKWCRPAWMCEVL [Phage-1766], the “Anti-PSMA Fab (SEQ ID NOs: 19, 20) signal” value in assay [3] came out at 2.38. The “Anti-PSMA Fab signal” value in assay [4] stood at 0.219.

As for SCAAGATYEWPTCL (Peptide-92 library clone) [Phage-1686], in assay [1], the “Anti-CD28 Fab (SEQ ID NOs: 696, 697) signal” value is 0.81. Also, the “Anti-CD28 Fab signal” value in assay [2] is 0.07.

Consider EFKWCIPSWMCHET [Phage-1778 (clonal phage displaying the peptide of SEQ ID NO: 2074)], for which the “Anti-PSMA Fab signal” value in assay [5] was found to be 0.0857. In addition, in assay [6], the “Anti-PSMA Fab (SEQ ID NOs: 19, 20) signal” value worked out at 2.02.

For FVPLCKPAWMCSFV [Phage-1768], in assay [3], the “Anti-PSMA Fab (SEQ ID NOs: 19, 20) signal” value worked out at 2.2. For the same molecule, the “Anti-PSMA Fab signal” value in assay [4] was found to be 0.111.

As for WCAAFFHYPWPQCF (Peptide-92 library clone) [Phage-1679], the “Anti-CD28 Fab (SEQ ID NOs: 696, 697) signal” value in assay [1] worked out at 0.87. Besides, the “Anti-CD28 Fab signal” value in assay [2] is 0.05.

On to LDNWCKPSWMCTGF [Phage-1777 (clonal phage displaying the peptide of SEQ ID NO: 2073)], for which the “Anti-PSMA Fab signal” value in assay [5] amounted to 0.0633. Besides, the “Anti-PSMA Fab (SEQ ID NOs: 19, 20) signal” value in assay [6] stood at 2.05.

In the case of LCAAGAHYSWPACF (also called Peptide-92 library clone) [Phage-1586], the “Anti-CD28 Fab (SEQ ID NOs: 696, 697) signal” value in assay [7] amounted to 1.41. Besides, the “Anti-CD28 Fab signal” value in assay [8] is 0.09.

With PCSAGVTYAWLYCV (also called Peptide-92 library clone) [Phage-1587], the “Anti-CD28 Fab (SEQ ID NOs: 696, 697) signal” value in assay [7] was 1.41. For the same molecule, the “Anti-CD28 Fab signal” value in assay [8] was found to be 0.06.

As for EGIRCTPIWMCEGF [Phage-1774], the “Anti-PSMA Fab (SEQ ID NOs: 19, 20) signal” value in assay [3] stood at 2.09. In addition, the “Anti-PSMA Fab signal” value in assay [4] is 0.0778.

With LTKLCIPDWMCSEF [Phage-1776 (clonal phage displaying the peptide of SEQ ID NO: 2072)], the “Anti-PSMA Fab signal” value in assay [5] worked out at 0.0876. Also, the “Anti-PSMA Fab (SEQ ID NOs: 19, 20) signal” value in assay [6] was 2.07.

On to HCEFHDYQSCDVLY [Phage-1761], for which the “Anti-PSMA Fab (SEQ ID NOs: 19, 20) signal” value in assay [3] was determined as 1.89. The “Anti-PSMA Fab signal” value in assay [4] is 0.126.

B1: Phage-1585 (peptide)
peptide: TCAAGASWNWPACE
notes: Read from the row with '-' = Peptide-92 residue: TCAAGASWNWPACE; also called Peptide-92 library clone
As to B1, the “Anti-CD28 Fab (SEQ ID NOs: 696, 697) signal” value in assay [7] was 1.41. In assay [8], the “Anti-CD28 Fab signal” value turned out to be 0.07.

For TCAAGATYEWPSCI (Peptide-92 library clone) [Phage-1681], the “Anti-CD28 Fab (SEQ ID NOs: 696, 697) signal” value in assay [1] amounted to 0.86. In addition, the “Anti-CD28 Fab signal” value in assay [2] was 0.09.

LEKLCIPAWMCEWL [Phage-1765]: the “Anti-PSMA Fab (SEQ ID NOs: 19, 20) signal” value in assay [3] worked out at 2.4. Further, the “Anti-PSMA Fab signal” value in assay [4] turned out to be 0.184.

The values are drawn from US20260242478A1 (published 2026).
